According to IntAct's records for PubMed 27009418:

B1: Calsenilin (Mus musculus), Q9QXT8 (parent)
chain: MQRTKEAVKASDGNLLGDPGRIPLSKRESIKWQRPRFTRQALMRCCLIKWILSSAAPQGSDSSDSELELSTVRHQPEGLDQLQAQTKFTKKELQSLYRGFKNECPTGLVDEDTFKLIYSQFFPQGDATTYAHFLFNAFDADGNGAIHFEDFVVGLSILLRGTVHEKLKWAFNLYDINKDGCITKEEMLAIMKSIYDMMGRHTYPILREDAPLEHVERFFQKMDRNQDGVVTIDEFLETCQKDENIMNSMQLFENVI

Variants of: B1
Settings: with psn1_human PSEN1, P49768

effect of a mutation on the interaction | Variant
decreasing interaction | E186Q
decreasing interaction | E234Q
